The values that follow come from patent US5603943A, “Nasally administrable compositions” (Dott Research Laboratory, priority 1994, dated 1997).

The conditions of data set [1]: relative, among calcitonins; cited from earlier work.
Data set [2] can be described thus: Nasal absorption, clinical effect and irritation (general statement). Type of data set: in vivo. The following applies: powder in specific carrier, nasal route.
In another data set the test system is blood sugar. Put plainly: Average fall of the blood sugar after nasal or subcutaneous insulin (Test Example 1). It is filed as in vivo, male New Zealand rabbits. Here is the method: A nasally administrable composition in powdery form was prepared by formulating insulin as a physiologically active peptide at the rate of 2.4 mg/rabbit (5 insulin unit (IU)/rabbit) with hydroxyapatite as a carrier having a mean particle size ranging from 40 to 45 μm.
The resulting composition was nasally administered once to six male New Zealand rabbits.
The average fall of the blood sugar was measured and represented in percentage (%) at 0, 15, 30, 60, 120 and 180 minutes after administration.
For comparison, 2 (IU)/rabbit of insulin was administered subcutaneously to six male New Zealand rabbits and the average fall of the blood sugar was measured and represented in percentage (%) at 0, 60, 120, 240 and 360 minutes after administration.

A short description of data set [3]: Somatropin blood concentration, nasal powder with hydroxyapatite or calcium carbonate (Test Example 10). As to conditions: for Concentration of somatropin in the blood: nasal 6.825 somatropin unit/25 mg. It is filed as in vivo, healthy male adults (human). Here is the method: The blood (2.5 ml) was collected from each of the tested adults prior to administration and then at 5, 10, 15, 20, 30, 45, 60, 90, 120 and 150 minutes after administration.

A short description of data set [4]: Somatropin blood concentration, nasal powder with calcium lactate or calcium carbonate (Test Example 11). Type of data set: in vivo, healthy male adults (human). Here is the method:
The blood (2.5 ml) was collected from each of the tested adults prior to administration and then at 5, 10, 15, 20, 30, 45, 60, 90, 120, 150 and 180 minutes after administration.

Values joined by “and” are separate entries in the source; they are usually repeats but may differ in a detail not shown here. Equal values may be shown once. Ends that are not written are not given here.

Regarding “eel calcitonin: naturally occurring calcitonin extracted from the origin and commercially available (CSNLSTCVLGKLSQELHKLQTYPRTDVGAGTP; ends and bridges not checked; cysteine pairing not given here; UniProt P01262 1-32, looked up)”, the stability result in data set [1] is “higher in stability than human calcitonin”.

As for “insulin: peptide hormone formulated with hydroxyapatite for nasal administration; also given subcutaneously as comparison”, the “absorption into the body” value in data set [2] is given as “well absorbed into the body”. For the same substance, the clinical effects result in data set [2] was “high clinical effects”. Also, the “Blood sugar, percent of initial value” is listed as 100% in the data set with blood sugar (S.C. comparison, 2 IU/rabbit, 0 min); 57% with blood sugar (S.C. comparison, 2 IU/rabbit, 60 min); 56% with blood sugar (S.C. comparison, 2 IU/rabbit, 120 min); 84% in the data set on blood sugar (S.C. comparison, 2 IU/rabbit, 240 min); 94% in the data set on blood sugar (S.C. comparison, 2 IU/rabbit, 360 min); 100% in the data set on blood sugar (nasal, 5 IU/rabbit, hydroxyapatite, 0 min). The “Blood sugar, percent of initial value” in the data set on blood sugar (nasal, 5 IU/rabbit, hydroxyapatite, 15 min) is reported as 105%; in the data set with blood sugar (nasal, 5 IU/rabbit, hydroxyapatite, 30 min), 66%; in the data set on blood sugar (nasal, 5 IU/rabbit, hydroxyapatite, 60 min), 67%; in the data set on blood sugar (nasal, 5 IU/rabbit, hydroxyapatite, 120 min) it was 84%; with blood sugar (nasal, 5 IU/rabbit, hydroxyapatite, 180 min), 96%. Further, the “absorption through nasal route” value in the data set with blood sugar (hydroxyapatite, rabbits) is on record as “high extent of absorption”.

On to “human calcitonin: naturally occurring calcitonin extracted from the origin and commercially available”, for which, in data set [1], the stability entry is “higher than salmon calcitonin”.

In the case of “somatropin: somatropin (growth hormone; recombinant type--NOVO), 150 mg per composition (1,000 mg) with carrier”, the “Concentration of somatropin in the blood” value in data set [3] (0 min (predose), calcium carbonate, individual cases No. 27-28 in order) is 0.28 ng/mL and 0.24 ng/mL; in data set [3] (0 min (predose), hydroxyapatite, individual cases No. 25-26 in order) it was 0.49 ng/mL and 0.76 ng/mL; in data set [3] (5 min, calcium carbonate, individual cases No. 27-28 in order), 0.96 ng/mL and 0.55 ng/mL; in data set [3] (5 min, hydroxyapatite, individual cases No. 25-26 in order), 2.44 ng/mL and 3.18 ng/mL; in data set [3] (10 min, calcium carbonate, individual cases No. 27-28 in order) it was 2.55 ng/mL and 1.08 ng/mL; in data set [3] (10 min, hydroxyapatite, individual cases No. 25-26 in order), 3.59 ng/mL and 2.27 ng/mL. The “Concentration of somatropin in the blood” value in data set [3] (15 min, calcium carbonate, individual cases No. 27-28 in order) was 2.84 ng/mL and 1.41 ng/mL; in data set [3] (15 min, hydroxyapatite, individual cases No. 25-26 in order), 4.66 ng/mL and 2.00 ng/mL; in data set [3] (20 min, calcium carbonate, individual cases No. 27-28 in order), 3.02 ng/mL and 1.78 ng/mL; in data set [3] (20 min, hydroxyapatite, individual cases No. 25-26 in order) it was 6.25 ng/mL and 1.86 ng/mL; in data set [3] (30 min, calcium carbonate, individual cases No. 27-28 in order), 4.11 ng/mL and 1.91 ng/mL; in data set [3] (30 min, hydroxyapatite, individual cases No. 25-26 in order), 5.21 ng/mL and 1.67 ng/mL. Moreover, the “Concentration of somatropin in the blood” value in data set [3] (45 min, calcium carbonate, individual cases No. 27-28 in order) was 8.93 ng/mL and 1.99 ng/mL; in data set [3] (45 min, hydroxyapatite, individual cases No. 25-26 in order), 4.16 ng/mL and 1.80 ng/mL; in data set [3] (60 min, calcium carbonate, individual cases No. 27-28 in order) it was 13.10 ng/mL and 2.11 ng/mL; in data set [3] (60 min, hydroxyapatite, individual cases No. 25-26 in order) it was 2.93 ng/mL and 1.61 ng/mL; in data set [3] (90 min, calcium carbonate, individual cases No. 27-28 in order), 14.60 ng/mL and 1.27 ng/mL; in data set [3] (90 min, hydroxyapatite, individual cases No. 25-26 in order) it was 1.45 ng/mL and 1.41 ng/mL. Also, the “Concentration of somatropin in the blood” value is 5.65 ng/mL and 0.92 ng/mL in data set [3] (120 min, calcium carbonate, individual cases No. 27-28 in order); 0.76 ng/mL and 1.16 ng/mL in data set [3] (120 min, hydroxyapatite, individual cases No. 25-26 in order); 2.97 ng/mL and 0.80 ng/mL in data set [3] (150 min, calcium carbonate, individual cases No. 27-28 in order); 0.91 ng/mL in data set [3] (150 min, hydroxyapatite, individual cases No. 25-26 in order); 0.15 ng/mL and 0.69 ng/mL in data set [4] (0 min (predose), nasal 6.825 somatropin unit/25 mg, calcium carbonate, individual cases No. 31-32 in order); 1.15 ng/mL and 0.16 ng/mL in data set [4] (0 min (predose), nasal 6,825 (so in the source) somatropin unit/25 mg, calcium lactate, individual cases No. 29-30 in order). The “Concentration of somatropin in the blood” value was 0.46 ng/mL and 6.15 ng/mL in data set [4] (5 min, nasal 6.825 somatropin unit/25 mg, calcium carbonate, individual cases No. 31-32 in order); 2.56 ng/mL and 0.30 ng/mL in data set [4] (5 min, nasal, 25 mg, calcium lactate, individual cases No. 29-30 in order); 0.81 ng/mL and 2.81 ng/mL in data set [4] (10 min, nasal 6.825 somatropin unit/25 mg, calcium carbonate, individual cases No. 31-32 in order); 4.29 ng/mL and 0.37 ng/mL in data set [4] (10 min, nasal, 25 mg, calcium lactate, individual cases No. 29-30 in order); 1.13 ng/mL and 2.49 ng/mL in data set [4] (15 min, nasal 6.825 somatropin unit/25 mg, calcium carbonate, individual cases No. 31-32 in order); 5.11 ng/mL and 0.65 ng/mL in data set [4] (15 min, nasal, 25 mg, calcium lactate, individual cases No. 29-30 in order). The “Concentration of somatropin in the blood” value in data set [4] (20 min, nasal 6.825 somatropin unit/25 mg, calcium carbonate, individual cases No. 31-32 in order) was 1.30 ng/mL and 2.20 ng/mL; in data set [4] (20 min, nasal, 25 mg, calcium lactate, individual cases No. 29-30 in order) it was 5.87 ng/mL and 0.72 ng/mL; in data set [4] (30 min, nasal 6.825 somatropin unit/25 mg, calcium carbonate, individual cases No. 31-32 in order), 1.64 ng/mL and 2.12 ng/mL; in data set [4] (30 min, nasal, 25 mg, calcium lactate, individual cases No. 29-30 in order), 7.70 ng/mL and 0.79 ng/mL; in data set [4] (45 min, nasal 6.825 somatropin unit/25 mg, calcium carbonate, individual cases No. 31-32 in order), 1.79 ng/mL and 1.67 ng/mL; in data set [4] (45 min, nasal, 25 mg, calcium lactate, individual cases No. 29-30 in order), 5.99 ng/mL and 0.71 ng/mL. The “Concentration of somatropin in the blood” value in data set [4] (60 min, nasal 6.825 somatropin unit/25 mg, calcium carbonate, individual cases No. 31-32 in order) was 1.47 ng/mL and 1.36 ng/mL; in data set [4] (60 min, nasal, 25 mg, calcium lactate, individual cases No. 29-30 in order) it was 6.16 ng/mL and 0.62 ng/mL; in data set [4] (90 min, nasal 6.825 somatropin unit/25 mg, calcium carbonate, individual cases No. 31-32 in order), 1.18 ng/mL and 1.02 ng/mL; in data set [4] (90 min, nasal, 25 mg, calcium lactate, individual cases No. 29-30 in order), 3.39 ng/mL and 0.58 ng/mL; in data set [4] (120 min, nasal 6.825 somatropin unit/25 mg, calcium carbonate, individual cases No. 31-32 in order) it was 0.79 ng/mL and 0.48 ng/mL; in data set [4] (120 min, nasal, 25 mg, calcium lactate, individual cases No. 29-30 in order), 1.70 ng/mL and 0.32 ng/mL. In addition, the “Concentration of somatropin in the blood” value is 0.59 ng/mL and 0.37 ng/mL in data set [4] (150 min, nasal 6.825 somatropin unit/25 mg, calcium carbonate, individual cases No. 31-32 in order); 0.24 ng/mL in data set [4] (150 min, nasal, 25 mg, calcium lactate, individual cases No. 29-30 in order); 1.67 ng/mL and 0.48 ng/mL in data set [4] (180 min, nasal 6.825 somatropin unit/25 mg, calcium carbonate, individual cases No. 31-32 in order); 0.45 ng/mL and 1.02 ng/mL in data set [4] (180 min, nasal, 25 mg, calcium lactate, individual cases No. 29-30 in order). For the same substance, the “absorption through nasal route” value in data set [3] (hydroxyapatite and calcium carbonate) is recorded as “high extent of absorption”; in data set [4] (calcium lactate and calcium carbonate) it was “high extent of absorption”. For the same substance, in data set [2], the “absorption into the body” value is reported as “well absorbed into the body”. In addition, in data set [2], the clinical effects entry is “high clinical effects”.
